# Source: the supplement of paper PMC10567573
# B1: GLTSCR2 (parent)
# chain: FQRRNMIEPRERAKFKRKYKVKLV
# Variants of: B1
# Test: protein stability index of a GFP-peptide fusion (GPS, HEK-293T) (PSI 1-6); higher = more stable
# Conditions: c terminus: a fixed tail appended
# 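Further: lentivirally expressed fusions sorted by FACS into six bins by GFP to DsRed ratio, PSI derived from sequencing read proportions per bin multiplied by bin number.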
row,Variant,protein stability index
1,FQRRNMIEPRERAWFKRKYKVKLV,2.85
2,FQRRNMIEPRERAFFKRKYKVKLV,2.77
3,FQRRNMIEPRERAMFKRKYKVKLV,1.97
4,FQRRNMIEPRERAPFKRKYKVKLV,1.68
5,FQRRNMIEPRERAEFKRKYKVKLV,2.74
6,FQRRNMIEPRERANFKRKYKVKLV,2.02
7,FQRRNMIEPRERAVFKRKYKVKLV,2.17
8,FQRRNMIEPRERAAFKRKYKVKLV,1.81
9,FQRRNMIEPRERARFKRKYKVKLV,2.02
10,FQRRNMIEPRERAQFKRKYKVKLV,1.99
11,FQRRNMIEPRERAYFKRKYKVKLV,2.39
12,FQRRNMIEPRERASFKRKYKVKLV,2.3
13,FQRRNMIEPRERAIFKRKYKVKLV,2.5
14,FQRRNMIEPRERAGFKRKYKVKLV,1.39
15,FQRRNMIEPRERADFKRKYKVKLV,2.09
16,FQRRNMIEPRERACFKRKYKVKLV,1.26
17,FQRRNMIEPRERAHFKRKYKVKLV,2.03
18,FQRRNMIEPRERATFKRKYKVKLV,2.33
19,FQRRNMIEPRERALFKRKYKVKLV,1.82
20,FQRRNMIEPRERAKVKRKYKVKLV,2.81
21,FQRRNMIEPRERAKYKRKYKVKLV,2.7
22,FQRRNMIEPRERAKIKRKYKVKLV,2.51
23,FQRRNMIEPRERAKTKRKYKVKLV,2.66
24,FQRRNMIEPRERAKRKRKYKVKLV,3.73

row,Variant,protein stability index
1,FQRRNMIEPRERAKKKRKYKVKLV,3.05
2,FQRRNMIEPRERAKPKRKYKVKLV,2.44
3,FQRRNMIEPRERAKAKRKYKVKLV,2.65
4,FQRRNMIEPRERAKSKRKYKVKLV,3.08
5,FQRRNMIEPRERAKCKRKYKVKLV,2.67
6,FQRRNMIEPRERAKEKRKYKVKLV,2.97
7,FQRRNMIEPRERAKWKRKYKVKLV,2.12
8,FQRRNMIEPRERAKQKRKYKVKLV,2.96
9,FQRRNMIEPRERAKGKRKYKVKLV,2.96
10,FQRRNMIEPRERAKHKRKYKVKLV,3.14
11,FQRRNMIEPRERAKDKRKYKVKLV,2.32
12,FQRRNMIEPRERAKMKRKYKVKLV,2.76
13,FQRRNMIEPRERAKNKRKYKVKLV,2.69
14,FQRRNMIEPRERAKLKRKYKVKLV,3.05
15,FQRRNMIEPRERAKFWRKYKVKLV,2.7
16,FQRRNMIEPRERAKFPRKYKVKLV,1.28
17,FQRRNMIEPRERAKFERKYKVKLV,1.86
18,FQRRNMIEPRERAKFQRKYKVKLV,1.87
19,FQRRNMIEPRERAKFCRKYKVKLV,1.87
20,FQRRNMIEPRERAKFFRKYKVKLV,2.4
21,FQRRNMIEPRERAKFGRKYKVKLV,2.18
22,FQRRNMIEPRERAKFVRKYKVKLV,1.86
23,FQRRNMIEPRERAKFNRKYKVKLV,2.48
24,FQRRNMIEPRERAKFYRKYKVKLV,2.03

row,Variant,protein stability index
1,FQRRNMIEPRERAKFSRKYKVKLV,2.42
2,FQRRNMIEPRERAKFARKYKVKLV,1.62
3,FQRRNMIEPRERAKFIRKYKVKLV,2.64
4,FQRRNMIEPRERAKFLRKYKVKLV,2.53
5,FQRRNMIEPRERAKFMRKYKVKLV,2.07
6,FQRRNMIEPRERAKFRRKYKVKLV,2.73
7,FQRRNMIEPRERAKFHRKYKVKLV,2.32
8,FQRRNMIEPRERAKFTRKYKVKLV,2.29
9,FQRRNMIEPRERAKFDRKYKVKLV,2.63
10,FQRRNMIEPRERAKFKMKYKVKLV,2.94
11,FQRRNMIEPRERAKFKNKYKVKLV,2.63
12,FQRRNMIEPRERAKFKGKYKVKLV,1.99
13,FQRRNMIEPRERAKFKEKYKVKLV,2.24
14,FQRRNMIEPRERAKFKCKYKVKLV,2.18
15,FQRRNMIEPRERAKFKDKYKVKLV,2.27
16,FQRRNMIEPRERAKFKQKYKVKLV,2.07
17,FQRRNMIEPRERAKFKKKYKVKLV,2.79
18,FQRRNMIEPRERAKFKAKYKVKLV,2.33
19,FQRRNMIEPRERAKFKIKYKVKLV,2.32
20,FQRRNMIEPRERAKFKVKYKVKLV,1.96
21,FQRRNMIEPRERAKFKYKYKVKLV,1.65
22,FQRRNMIEPRERAKFKTKYKVKLV,2.56
23,FQRRNMIEPRERAKFKWKYKVKLV,2.1
24,FQRRNMIEPRERAKFKLKYKVKLV,2.45

row,Variant,protein stability index
1,FQRRNMIEPRERAKFKPKYKVKLV,2.46
2,FQRRNMIEPRERAKFKHKYKVKLV,1.89
3,FQRRNMIEPRERAKFKFKYKVKLV,1.74
4,FQRRNMIEPRERAKFKSKYKVKLV,2.77
5,FQRRNMIEPRERWKFKRKYKVKLV,1.61
6,FQRRNMIEPRERFKFKRKYKVKLV,1.64
7,FQRRNMIEPRERNKFKRKYKVKLV,3.21
8,FQRRNMIEPRERGKFKRKYKVKLV,2.08
9,FQRRNMIEPRERVKFKRKYKVKLV,3.38
10,FQRRNMIEPRERYKFKRKYKVKLV,2.68
11,FQRRNMIEPRERLKFKRKYKVKLV,2.29
12,FQRRNMIEPRERHKFKRKYKVKLV,2.74
13,FQRRNMIEPRERQKFKRKYKVKLV,2.35
14,FQRRNMIEPRERSKFKRKYKVKLV,2.32
15,FQRRNMIEPRERRKFKRKYKVKLV,2.72
16,FQRRNMIEPRERIKFKRKYKVKLV,2.13
17,FQRRNMIEPRERMKFKRKYKVKLV,2.08
18,FQRRNMIEPRERKKFKRKYKVKLV,2.37
19,FQRRNMIEPRERPKFKRKYKVKLV,2.02
20,FQRRNMIEPRERTKFKRKYKVKLV,2.03
21,FQRRNMIEPREREKFKRKYKVKLV,2.56
22,FQRRNMIEPRERAKFKRAYKVKLV,2.25
